Measurements: patent US20080242608

Molecular target: T1, GST-FOXO3 peptide P2 (amino acids 154-259), O43524
T1 chain: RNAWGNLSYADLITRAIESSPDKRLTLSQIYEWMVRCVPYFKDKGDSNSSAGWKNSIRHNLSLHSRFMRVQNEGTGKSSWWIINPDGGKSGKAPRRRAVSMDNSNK

B1: FLAG-MST1 (protein)
chain: METVQLRNPPRRQLKKLDEDSLTKQPEEVFDVLEKLGEGSYGSVYKAIHKETGQIVAIKQVPVESDLQEIIKEISIMQQCDSPHVVKYYGSYFKNTDLWIVMEYCGAGSVSDIIRLRNKTLTEDEIATILQSTLKGLEYLHFMRKIHRDIKAGNILLNTEGHAKLADFGVAGQLTDTMAKRNTVIGTPFWMAPEVIQEIGYNCVADIWSLGITAIEMAEGKPPYADIHPMRAIFMIPTNPPPTFRKPELWSDNFTDFVKQCLVKSPEQRATATQLLQHPFVRSAKGVSILRDLINEAMDVKLKRQESQQREVDQDDEENSEEDEMDSGTMVRAVGDEMGTVRVASTMTDGANTMIEHDDTLPSQLGTMVINAEDEEEEGTMKRRDETMQPAKPSFLEYFEQKEKENQINSFGKSVPGPLKNSSDWKIPQDGDYEFLKSWTVEDLQKRLLALDPMMEQEIEEIRQKYQSKRQPILDAIEAKKRRQQNF
**Q.** Which “in vitro kinase assay (phosphorylation of GST-FOXO3 peptides)” value does the source give for B1 here?
**A.** The value was “MST1 robustly phosphorylated the P2 fragment”.
